The record followed here is paper PMC4757811 (Biochemistry, 2015).

Square brackets hold non-standard residues; d marks the D form. Ends that are not written are not given here. pY = N[C@@H](Cc1ccc(OP(=O)(O)O)cc1)C(=O)O

This assay deals with Brk SH2 domain (UniProt Q13882 78-170). Kind of assay: ITC.
Chain of Brk SH2 domain (Q13882 78-170): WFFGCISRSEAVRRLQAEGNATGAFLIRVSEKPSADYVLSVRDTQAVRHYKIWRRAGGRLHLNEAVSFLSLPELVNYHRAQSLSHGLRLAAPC

The molecule FTS[pY]ENPTG [Phosphorylated Brk C-terminal tail peptide, wild type (FTSpYENPTG)] returned a Kd of 15 µM.

Turning to FTS[pY]ENLTG [Phosphorylated Brk C-terminal tail peptide with the P450L substitution (FTSpYENLTG)], the Kd came out at 53 µM.
